# Measured values published in paper PMC9259494.
# Columns and labels:
# Assay in all cases: cryo-EM structure; single-particle cryo-EM of the co-purified R388 T4SS complex (VirB3-VirB10); 50 mM HEPES pH 7.6, 200 mM sodium acetate, 0.1% digitonin, 0.05 mM TDAO; maps of O-layer, I-layer, stalk, IMC protomer near-atomic, arches from the 6.18 Å map
# [1] = target: TrwE/VirB10 with Strep tag (R388 T4SS) (plasmid R388)
# [2] = target: TrwF/VirB9 (R388 T4SS) (plasmid R388)
# [3] = target: TrwG/VirB8 (R388 T4SS) (plasmid R388)
# [4] = target: TrwI/VirB6 (R388 T4SS) (plasmid R388)
# [5] = target: TrwJ/VirB5 (R388 T4SS) (plasmid R388)
# [6] = target: TrwK/VirB4 (R388 T4SS) (plasmid R388)
substance,measurement,setting,value
TrwE/VirB10 with Strep tag (R388 T4SS) (natural protein),stoichiometry N,[1],14
TrwF/VirB9 (R388 T4SS) (natural protein),stoichiometry N,[2],16
TrwG/VirB8 (R388 T4SS) (natural protein),stoichiometry N,[3],18
TrwI/VirB6 (R388 T4SS) (natural protein),stoichiometry N,[4],5
TrwJ/VirB5 (R388 T4SS) (natural protein),stoichiometry N,[5],5
TrwK/VirB4 (R388 T4SS) (natural protein),stoichiometry N,[6],12
